In the supplement of paper PMC10567573:

B1: TOR1AIP2 (parent)
chain: HHVADAYTSSQKVSPIQIDGAGRT

Variants of: B1
Experiment: protein stability index of a GFP-peptide fusion (GPS, HEK-293T) (PSI 1-6); higher = more stable
Conditions: c terminus: a fixed tail appended
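Note: lentivirally expressed fusions sorted by FACS into six bins by GFP to DsRed ratio, PSI derived from sequencing read proportions per bin multiplied by bin number.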

Variant	protein stability index
HHVADAYTSSQKVSPIQIDGALRT	2.92
HHVADAYTSSQKVSPIQIDGAKRT	3.72
HHVADAYTSSQKVSPIQIDGAGFT	3.12
HHVADAYTSSQKVSPIQIDGAGAT	3.86
HHVADAYTSSQKVSPIQIDGAGLT	3.36
HHVADAYTSSQKVSPIQIDGAGNT	3.81
HHVADAYTSSQKVSPIQIDGAGMT	3.26
HHVADAYTSSQKVSPIQIDGAGIT	3.45
HHVADAYTSSQKVSPIQIDGAGVT	3.29
HHVADAYTSSQKVSPIQIDGAGQT	3.71
HHVADAYTSSQKVSPIQIDGAGET	3.91
HHVADAYTSSQKVSPIQIDGAGTT	3.47
HHVADAYTSSQKVSPIQIDGAGKT	3.28
HHVADAYTSSQKVSPIQIDGAGHT	3.76
HHVADAYTSSQKVSPIQIDGAGCT	3.68
HHVADAYTSSQKVSPIQIDGAGDT	4.11
HHVADAYTSSQKVSPIQIDGAGST	3.83
HHVADAYTSSQKVSPIQIDGAGGT	3.68
HHVADAYTSSQKVSPIQIDGAGWT	3.1
HHVADAYTSSQKVSPIQIDGAGYT	2.94
HHVADAYTSSQKVSPIQIDGAGPT	3.01
HHVADAYTSSQKVSKIQIDGAGRT	3.33
HHVADAYTSSQKVSIIQIDGAGRT	2.77
HHVADAYTSSQKVSTIQIDGAGRT	3.28

Variant	protein stability index
HHVADAYTSSQKVSMIQIDGAGRT	3.25
HHVADAYTSSQKVSQIQIDGAGRT	3.43
HHVADAYTSSQKVSVIQIDGAGRT	3.14
HHVADAYTSSQKVSNIQIDGAGRT	3.47
HHVADAYTSSQKVSHIQIDGAGRT	3.08
HHVADAYTSSQKVSWIQIDGAGRT	2.63
HHVADAYTSSQKVSGIQIDGAGRT	4.04
HHVADAYTSSQKVSSIQIDGAGRT	3.41
HHVADAYTSSQKVSYIQIDGAGRT	2.55
HHVADAYTSSQKVSEIQIDGAGRT	3.82
HHVADAYTSSQKVSRIQIDGAGRT	3.26
HHVADAYTSSQKVSLIQIDGAGRT	3.45
HHVADAYTSSQKVSFIQIDGAGRT	2.82
HHVADAYTSSQKVSPVQIDGAGRT	4.05
HHVADAYTSSQKVSPSQIDGAGRT	3.78
HHVADAYTSSQKVSPCQIDGAGRT	3.31
HHVADAYTSSQKVSPFQIDGAGRT	3.49
HHVADAYTSSQKVSPWQIDGAGRT	2.59
HHVADAYTSSQKVSPRQIDGAGRT	3.94
HHVADAYTSSQKVSPAQIDGAGRT	3.72
HHVADAYTSSQKVSPTQIDGAGRT	4.13
HHVADAYTSSQKVSPEQIDGAGRT	4.51
HHVADAYTSSQKVSPHQIDGAGRT	3.45
HHVADAYTSSQKVSPPQIDGAGRT	4.09

Variant	protein stability index
HHVADAYTSSQKVSPQQIDGAGRT	3.69
HHVADAYTSSQKVSPNQIDGAGRT	3.88
HHVADAYTSSQKVSPKQIDGAGRT	4.04
HHVADAYTSSQKVSPLQIDGAGRT	3.6
HHVADAYTSSQKVSPGQIDGAGRT	3.78
HHVADAYTSSQKVSPDQIDGAGRT	4.46
HHVADAYTSSQKVSPYQIDGAGRT	3.69
HHVADAYTSSQKVSPMQIDGAGRT	3.38
HHVADAYTSSQKVSPIQIDGAGRR	3.68
HHVADAYTSSQKVSPIQIDGAGRY	2.93
HHVADAYTSSQKVSPIQIDGAGRM	2.98
HHVADAYTSSQKVSPIQIDGAGRC	3.43
HHVADAYTSSQKVSPIQIDGAGRG	3.85
HHVADAYTSSQKVSPIQIDGAGRV	3.51
HHVADAYTSSQKVSPIQIDGAGRE	4
HHVADAYTSSQKVSPIQIDGAGRK	3.9
HHVADAYTSSQKVSPIQIDGAGRP	3.46
HHVADAYTSSQKVSPIQIDGAGRQ	3.3
HHVADAYTSSQKVSPIQIDGAGRS	3.58
HHVADAYTSSQKVSPIQIDGAGRF	2.81
HHVADAYTSSQKVSPIQIDGAGRA	3.36
HHVADAYTSSQKVSPIQIDGAGRI	3
HHVADAYTSSQKVSPIQIDGAGRH	3.38
HHVADAYTSSQKVSPIQIDGAGRW	2.97

Variant	protein stability index
HHVADAYTSSQKVSPIQIDGAGRN	3.97
HHVADAYTSSQKVSPIQIDGAGRD	4.18
HHVADAYTSSQKVSPIQIDGAGRL	3.09
HHVADAYTSSQKVSPIQIDAAGRT	3.53
HHVADAYTSSQKVSPIQIDFAGRT	3.06
HHVADAYTSSQKVSPIQIDNAGRT	3.58
HHVADAYTSSQKVSPIQIDWAGRT	2.33
HHVADAYTSSQKVSPIQIDSAGRT	3.23
HHVADAYTSSQKVSPIQIDYAGRT	2.83
HHVADAYTSSQKVSPIQIDCAGRT	3.19
HHVADAYTSSQKVSPIQIDEAGRT	3.36
HHVADAYTSSQKVSPIQIDDAGRT	4.01
HHVADAYTSSQKVSPIQIDQAGRT	3.7
HHVADAYTSSQKVSPIQIDMAGRT	3.44
HHVADAYTSSQKVSPIQIDHAGRT	3.31
HHVADAYTSSQKVSPIQIDVAGRT	3.33
HHVADAYTSSQKVSPIQIDRAGRT	3.38
HHVADAYTSSQKVSPIQIDTAGRT	3.48
HHVADAYTSSQKVSPIQIDPAGRT	3.28
HHVADAYTSSQKVSPIQIDLAGRT	2.78
HHVADAYTSSQKVSPIQIDKAGRT	3.38
HHVADAYTSSQKVSPIQIDIAGRT	3.04
